Paper PMC5001930 (Biological psychiatry, 2016)

target: MET receptor tyrosine kinase (mouse (endogenous in neocortical …, UniProt P16056 25-1379)); test: co-IP

Binder | mean fold change (HGF/PBS) of binding [fold]
GRM5 (receptor, UniProt Q3UVX5 19-1203, looked up) SAQSSERRVVAHMPGDIIIGALFSVHHQPTVDKVHERKCGAVREQYGIQRVEAMLHTLERINSDPTLLPNITLGCEIRDSCWHSAVALEQSIEFIRDSLISSEEEEGLVRCVDGSSSFRSKKPIVGVIGPGSSSVAIQVQNLLQLFNIPQIAYSATSMDLSDKTLFKYFMRVVPSDAQQARAMVDIVKRYNWTYVSAVHTEGNYGESGMEAFKDMSAKEGICIAHSYKIYSNAGEQSFDKLLKKLRSHLPKARVVACFCEGMTVRGLLMAMRRLGLAGEFLLLGSDGWADRYDVTDGYQREAVGGITIKLQSPDVKWFDDYYLKLRPETNLRNPWFQEFWQHRFQCRLEGFAQENSKYNKTCNSSLTLRTHHVQDSKMGFVINAIYSMAYGLHNMQMSLCPGYAGLCDAMKPIDGRKLLDSLMKTNFTGVSGDMILFDENGDSPGRYEIMNFKEMGKDYFDYINVGSWDNGELKMDDDEVWSKKNNIIRSVCSEPCEKGQIKVIRKGEVSCCWTCTPCKENEYVFDEYTCKACQLGSWPTDDLTGCDLIPVQYLRWGDPEPIAAVVFACLGLLATLFVTVIFIIYRDTPVVKSSSRELCYIILAGICLGYLCTFCLIAKPKQIYCYLQRIGIGLSPAMSYSALVTKTNRIARILAGSKKKICTKKPRFMSACAQLVIAFILICIQLGIIVALFIMEPPDIMHDYPSIREVYLICNTTNLGVVTPLGYNGLLILSCTFYAFKTRNVPANFNEAKYIAFTMYTTCIIWLAFVPIYFGSNYKIITMCFSVSLSATVALGCMFVPKVYIILAKPERNVRSAFTTSTVVRMHVGDGKSSSAASRSSSLVNLWKRRGSSGETLRYKDRRLAQHKSEIECFTPKGSMGNGGRATMSSSNGKSVTWAQNEKSTRGQHLWQRLSVHINKKENPNQTAVIKPFPKSTESRGQGAGAGGGSGPGAAGAGSAGCTATGGPEPPDAGPKALYDVAEAEERFPAAARPRSPSPISTLSHLAGSAGRTDDDAPSLHSETAARSSSSQGSLMEQISSVVTRFTANITELNSMMLSTAAAPGPPGTPICSSYLIPKEIQLPTTMTTFAEIQPLPAIEVTGGAQPATGPSPAQETPAGAEAAPGKPDLEELVALTPPSPFRDSVDSGSTTPNSPVSESALCIPSSPKYDTLIIRDYTQSSSSL | 1.35
SYNGAP1 (natural protein, UniProt F6SEU4 1-1340, looked up) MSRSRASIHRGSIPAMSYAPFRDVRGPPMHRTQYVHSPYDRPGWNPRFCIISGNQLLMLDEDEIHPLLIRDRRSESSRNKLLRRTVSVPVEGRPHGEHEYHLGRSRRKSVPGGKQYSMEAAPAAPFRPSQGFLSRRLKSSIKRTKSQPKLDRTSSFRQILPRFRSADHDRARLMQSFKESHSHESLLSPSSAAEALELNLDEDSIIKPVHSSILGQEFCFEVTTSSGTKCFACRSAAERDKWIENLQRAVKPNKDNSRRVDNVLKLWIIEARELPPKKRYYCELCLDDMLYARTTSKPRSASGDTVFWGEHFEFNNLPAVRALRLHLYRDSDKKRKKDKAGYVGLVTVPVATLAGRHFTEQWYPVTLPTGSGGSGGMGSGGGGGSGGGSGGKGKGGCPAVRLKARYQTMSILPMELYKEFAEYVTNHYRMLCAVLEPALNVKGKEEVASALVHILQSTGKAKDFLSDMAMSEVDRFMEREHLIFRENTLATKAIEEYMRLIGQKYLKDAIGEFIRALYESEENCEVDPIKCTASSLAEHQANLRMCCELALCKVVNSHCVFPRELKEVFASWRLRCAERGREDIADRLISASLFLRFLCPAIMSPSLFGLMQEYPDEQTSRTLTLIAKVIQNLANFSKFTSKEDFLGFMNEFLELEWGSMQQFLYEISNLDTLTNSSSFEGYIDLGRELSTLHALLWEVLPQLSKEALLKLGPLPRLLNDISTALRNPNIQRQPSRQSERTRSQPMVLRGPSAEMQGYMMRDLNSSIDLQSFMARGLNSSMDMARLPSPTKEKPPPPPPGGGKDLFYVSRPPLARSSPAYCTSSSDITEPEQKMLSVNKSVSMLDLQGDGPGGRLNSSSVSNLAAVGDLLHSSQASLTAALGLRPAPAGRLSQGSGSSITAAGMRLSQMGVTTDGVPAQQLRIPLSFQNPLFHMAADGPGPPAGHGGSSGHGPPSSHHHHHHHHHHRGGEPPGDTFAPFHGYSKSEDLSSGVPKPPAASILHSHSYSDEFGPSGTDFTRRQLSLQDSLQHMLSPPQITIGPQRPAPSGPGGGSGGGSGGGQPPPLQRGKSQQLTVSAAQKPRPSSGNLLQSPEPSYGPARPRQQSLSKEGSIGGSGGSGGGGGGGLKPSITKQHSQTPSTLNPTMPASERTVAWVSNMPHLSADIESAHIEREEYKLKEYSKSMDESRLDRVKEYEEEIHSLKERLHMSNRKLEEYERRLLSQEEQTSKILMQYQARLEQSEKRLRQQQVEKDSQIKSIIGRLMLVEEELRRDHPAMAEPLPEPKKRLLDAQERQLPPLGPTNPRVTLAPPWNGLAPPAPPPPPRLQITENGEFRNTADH | 0.63
NTRK3 (receptor) not shown | 0.95
